In series [1] the target is T1, Spo0A DNA-binding domain (Spo0A145-247-His6) (UniProt P52938).
T1 sequence: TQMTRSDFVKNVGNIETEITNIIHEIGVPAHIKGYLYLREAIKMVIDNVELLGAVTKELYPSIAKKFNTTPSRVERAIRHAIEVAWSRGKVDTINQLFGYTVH
The series can be described thus: EMSA. As to conditions: FP: 1 nM dsDNA, 50 mM Tris-HCl pH 8, 100 mM KCl, 2.5 mM MgCl2, 0.2 mM DTT, 10% glycerol, 2 µg salmon sperm DNA, 10 min, RT; EMSA: 20 fmol DNA, 10 mM Tris-HCl ….

In series [2] the target is T2, Spo0A DNA-binding domain (Spo0A145-247-His6) (UniProt P52938 145-247).
T2 sequence: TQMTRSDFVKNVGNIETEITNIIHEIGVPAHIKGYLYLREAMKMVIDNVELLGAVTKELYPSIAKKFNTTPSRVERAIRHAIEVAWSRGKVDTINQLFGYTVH
The series can be described thus: fluorescence polarization; FP: 1 nM dsDNA, 50 mM Tris-HCl pH 8, 100 mM KCl, 2.5 mM MgCl2, 0.2 mM DTT, 10% glycerol, 2 µg salmon sperm DNA, 10 min, RT; EMSA: 20 fmol DNA, 10 mM Tris-HCl pH 7.6, 1 mM EDTA, 50 mM NaCl, 1 mM DTT, 5% glycerol, 30 min, 37 C. Conditions: protein: recombinant; tags: C-terminal His6; label: 6FAM on strand 1 (5' primer); blunt.

The values that follow come from article PMC13395437, “A single DNA methylation site regulates cell fate during Clostridioides difficile sporulation”.

Turning to “CCTCCTCTTTTGTTTATATTAAGAATTGTAACAAAGAGGAGTAATTTTATTTGTCATAATCGGTTTTAAAAATCAAAAAATATTAATACATTTTTTTTGACTTTTGACATATTAAGCCTTCCAAATTATCGTATTCACTTACGGTTATTTCTTCTATTTCTAATTTTTCCATTATTATATTCAATATTTTTACACCAGCAGTTATAATATCCGCACGTTTTTCTTGTAGCCCTTTTAAGTTCTTTTTATCAC (double strand) [Me3* PspoIIE EMSA fragment]”, the binding entry in series [1] is reported as “binds”.
As for “CCTCCTCTTTTGTTTATATTAAGAATTGTAACAAAGAGGAGTAATTTTTTTTGTCATAATCGGTTTTAAAAATCAAAAAATATTAATACATTTTTTTTGACTTTTGACATATTAAGCCTTCCAAATTATCGTATTCACTTACGGTTATTTCTTCTATTTCTAATTTTTCCATTATTATATTCAATATTTTTACACCAGCAGTTATAATATCCGCACGTTTTTCTTGTAGCCCTTTTAAGTTCTTTTTATCAC (double strand) [WT PspoIIE EMSA fragment]”, the binding entry in series [1] is “binds”.

B1: Me3* PspoIIE FP probe (dsDNA)
DNA 1: AAAACCGATTATGACAAATAAAATTACTCC
DNA 2: GGAGTAATTTTATTTGTCATAATCGGTTTT
For the molecule B1, the binding result in series [2] was “binds”.

B2: WT PspoIIE FP probe (dsDNA)
DNA 1: AAAACCGATTATGACAAAAAAAATTACTCC
DNA 2: GGAGTAATTTTTTTTGTCATAATCGGTTTT
For the molecule B2, the binding result in series [2] is on record as “binds”.
